Paper doi:10.1101/2021.10.18.464377

What was measured:
[1] = target: Synaptotagmin 2 wild type expressed in HEK 293 or PC12 cells (UniProt P29101); assay: immunostaining of cells or tissue
[2] = target: Synaptotagmin 1 wild type expressed in HEK 293 cells (UniProt P21707); assay: immunostaining of cells or tissue
Sequence of UniProt P21707 (P21707 whole entry): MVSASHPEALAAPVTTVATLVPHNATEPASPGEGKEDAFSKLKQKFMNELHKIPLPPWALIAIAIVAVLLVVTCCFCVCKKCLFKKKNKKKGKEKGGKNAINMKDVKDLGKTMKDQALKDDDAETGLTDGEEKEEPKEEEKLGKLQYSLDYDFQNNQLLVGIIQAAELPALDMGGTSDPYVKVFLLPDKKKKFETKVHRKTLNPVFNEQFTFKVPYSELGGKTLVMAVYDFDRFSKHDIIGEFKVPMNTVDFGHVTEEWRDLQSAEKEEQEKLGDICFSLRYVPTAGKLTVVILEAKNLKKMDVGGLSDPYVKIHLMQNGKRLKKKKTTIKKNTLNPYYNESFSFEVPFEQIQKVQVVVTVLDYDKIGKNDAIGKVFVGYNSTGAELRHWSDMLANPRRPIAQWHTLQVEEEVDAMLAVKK

Sequence of UniProt P29101 (P29101 whole entry): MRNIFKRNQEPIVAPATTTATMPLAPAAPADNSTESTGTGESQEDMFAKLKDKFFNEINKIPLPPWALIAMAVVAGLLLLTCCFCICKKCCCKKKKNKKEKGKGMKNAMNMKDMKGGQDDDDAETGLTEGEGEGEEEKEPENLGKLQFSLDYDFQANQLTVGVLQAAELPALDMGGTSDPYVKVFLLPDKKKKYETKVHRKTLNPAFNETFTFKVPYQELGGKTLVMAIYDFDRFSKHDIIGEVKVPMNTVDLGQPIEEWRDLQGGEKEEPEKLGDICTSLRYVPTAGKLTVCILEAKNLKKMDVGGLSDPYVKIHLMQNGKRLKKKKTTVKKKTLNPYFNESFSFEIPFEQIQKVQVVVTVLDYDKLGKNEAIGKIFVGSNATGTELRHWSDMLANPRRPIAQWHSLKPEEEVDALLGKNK

Botulinum neurotoxin serotype B (B1 Okra strain) with non-toxic accessory proteins (complex)
normalised BoNT/B immunoreactivity (IR, relative to WT) [1]: 1
normalised BoNT/B immunoreactivity (IR, relative to WT) [2]: 1
